{"source": "patent US6869925", "about": "(Amgen, dated 2005)", "key": {"[1]": {"molecular_target": "SLPI binding sites on HuT78 cells (human T cell line) (human)", "assay": "competition with 125I-SLPI, intact HuT78 cells, competitor at 84 nM"}, "[2]": {"molecular_target": "SLPI binding sites on U937 cells (human monocyte cell line; intact cells, PMA-induced cells or plasma membranes) (human)", "assay": "competition with 125I-SLPI, intact U937 cells, competitor at 860 nM"}, "[3]": {"molecular_target": "SLPI binding sites on HuT78 cells (human T cell line) (human)", "assay": "125I-SLPI saturation binding, intact HuT78 cells, *SLPI at 40 pM"}, "[4]": {"molecular_target": "SLPI binding sites on HuT78 cells (human T cell line) (human)", "assay": "competition with 125I-SLPI, intact HuT78 cells, competitor at 2.6 nM"}, "[5]": {"molecular_target": "SLPI binding sites on HuT78 cells (human T cell line) (human)", "assay": "125I-SLPI saturation binding, intact HuT78 cells, *SLPI at 2560 pM"}, "[6]": {"molecular_target": "SLPI binding sites on U937 cells (human monocyte cell line; intact cells, PMA-induced cells or plasma membranes) (human)", "assay": "125I-SLPI saturation binding, intact U937 cells, *SLPI at 80 pM"}, "[7]": {"molecular_target": "SLPI binding sites on HuT78 cells (human T cell line) (human)", "assay": "competition with 125I-SLPI, intact HuT78 cells, cold SLPI at 270 nM"}, "[8]": {"molecular_target": "SLPI binding sites on U937 cells (human monocyte cell line; intact cells, PMA-induced cells or plasma membranes) (human)", "assay": "125I-SLPI saturation binding, U937 cells plus PMA, *SLPI at 1,280 pM"}, "[9]": {"molecular_target": "SLPI binding sites on U937 cells (human monocyte cell line; intact cells, PMA-induced cells or plasma membranes) (human)", "assay": "125I-SLPI saturation binding, U937 cells minus PMA, *SLPI at 80 pM"}, "[10]": {"molecular_target": "SLPI binding sites on U937 cells (human monocyte cell line; intact cells, PMA-induced cells or plasma membranes) (human)", "assay": "competition with 125I-SLPI, intact U937 cells, competitor at 270 nM"}, "[11]": {"molecular_target": "SLPI binding sites on HuT78 cells (human T cell line) (human)", "assay": "125I-SLPI saturation binding, intact HuT78 cells, *SLPI at 5120 pM"}, "[12]": {"molecular_target": "SLPI binding sites on HuT78 cells (human T cell line) (human)", "assay": "competition with 125I-SLPI, intact HuT78 cells, competitor at 0.80 nM"}, "[13]": {"molecular_target": "SLPI binding sites on HuT78 cells (human T cell line) (human)", "assay": "125I-SLPI saturation binding, intact HuT78 cells, *SLPI at 160 pM"}, "[14]": {"molecular_target": "SLPI binding sites on U937 cells (human monocyte cell line; intact cells, PMA-induced cells or plasma membranes) (human)", "assay": "125I-SLPI saturation binding, U937 cells minus PMA, *SLPI at 1280 pM"}, "[15]": {"molecular_target": "SLPI binding sites on U937 cells (human monocyte cell line; intact cells, PMA-induced cells or plasma membranes) (human)", "assay": "125I-SLPI saturation binding, intact U937 cells, *SLPI at 160 pM"}, "[16]": {"molecular_target": "SLPI binding sites on HuT78 cells (human T cell line) (human)", "assay": "125I-SLPI saturation binding, intact HuT78 cells, *SLPI at 10,240 pM"}, "[17]": {"molecular_target": "SLPI binding sites on HuT78 cells (human T cell line) (human)", "assay": "competition with 125I-SLPI, intact HuT78 cells, cold SLPI at 860 nM"}, "[18]": {"molecular_target": "SLPI binding sites on U937 cells (human monocyte cell line; intact cells, PMA-induced cells or plasma membranes) (human)", "assay": "competition with 125I-SLPI, U937 plasma membranes, Kd by Cheng-Prusoff"}, "[19]": {"molecular_target": "SLPI binding sites on U937 cells (human monocyte cell line; intact cells, PMA-induced cells or plasma membranes) (human)", "assay": "competition with 125I-SLPI, U937 plasma membranes, competitor at 0.800 nM"}, "[20]": {"molecular_target": "SLPI binding sites on U937 cells (human monocyte cell line; intact cells, PMA-induced cells or plasma membranes) (human)", "assay": "125I-SLPI saturation binding, intact U937 cells, *SLPI at 2560 pM"}, "[21]": {"molecular_target": "SLPI binding sites on U937 cells (human monocyte cell line; intact cells, PMA-induced cells or plasma membranes) (human)", "assay": "competition with 125I-SLPI, intact U937 cells, cold SLPI at 26 nM"}, "[22]": {"molecular_target": "SLPI binding sites on U937 cells (human monocyte cell line; intact cells, PMA-induced cells or plasma membranes) (human)", "assay": "competition with 125I-SLPI, intact U937 cells, cold SLPI at 0.078 nM"}, "[23]": {"molecular_target": "SLPI binding sites on U937 cells (human monocyte cell line; intact cells, PMA-induced cells or plasma membranes) (human)", "assay": "competition with 125I-SLPI, intact U937 cells, cold SLPI at 0.80 nM"}, "[24]": {"molecular_target": "SLPI binding sites on U937 cells (human monocyte cell line; intact cells, PMA-induced cells or plasma membranes) (human)", "assay": "125I-SLPI saturation binding, intact U937 cells, *SLPI at 320 pM"}}, "data": [{"substance": "serine leukocyte protease inhibitor (SLPI) (from UniProt P03973 26-132)", "values": [{"measurement": "% *SLPI BOUND", "setting": "[1]", "value": 27, "unit": "%"}, {"measurement": "% *SLPI BOUND", "setting": "[2]", "value": 4, "unit": "%"}, {"measurement": "specific cpm", "setting": "[3]", "value": 0, "unit": "cpm"}, {"measurement": "% *SLPI BOUND", "setting": "[4]", "value": 76, "unit": "%"}, {"measurement": "bound pM", "setting": "[5]", "value": 9.98, "unit": "pM"}, {"measurement": "bound per free", "setting": "[5]", "value": 0.0039}, {"measurement": "sites bound per cell (sites per cell)", "setting": "[5]", "value": 501}, {"measurement": "specific cpm", "setting": "[5]", "value": 398, "unit": "cpm"}, {"measurement": "bound *SLPI (pM)", "setting": "[6]", "value": 13.6, "unit": "pM"}, {"measurement": "bound per free", "setting": "[6]", "value": 0.205}, {"measurement": "sites bound per cell (sites per cell)", "setting": "[6]", "value": 819}, {"measurement": "specific cpm", "setting": "[6]", "value": 543, "unit": "cpm"}, {"measurement": "% *SLPI BOUND", "setting": "[7]", "value": 0, "unit": "%"}, {"measurement": "bound pM", "setting": "[8]", "value": 130, "unit": "pM"}, {"measurement": "bound per free", "setting": "[8]", "value": 0.113}, {"measurement": "sites bound per cell (sites per cell)", "setting": "[8]", "value": 7830}, {"measurement": "specific cpm", "setting": "[8]", "value": 1390, "unit": "cpm"}, {"measurement": "bound *SLPI (pM)", "setting": "[9]", "value": 37, "unit": "pM"}, {"measurement": "bound per free", "setting": "[9]", "value": 0.86}, {"measurement": "sites bound per cell (sites per cell)", "setting": "[9]", "value": 2230}, {"measurement": "specific cpm", "setting": "[9]", "value": 400, "unit": "cpm"}, {"measurement": "% *SLPI BOUND", "setting": "[10]", "value": 5, "unit": "%"}, {"measurement": "bound pM", "setting": "[11]", "value": 13.5, "unit": "pM"}, {"measurement": "bound per free", "setting": "[11]", "value": 0.0026}, {"measurement": "sites bound per cell (sites per cell)", "setting": "[11]", "value": 813}, {"measurement": "specific cpm", "setting": "[11]", "value": 538, "unit": "cpm"}, {"measurement": "% *SLPI BOUND", "setting": "[12]", "value": 79, "unit": "%"}, {"measurement": "bound pM", "setting": "[13]", "value": 0.93, "unit": "pM"}, {"measurement": "bound per free", "setting": "[13]", "value": 0.0058}, {"measurement": "sites bound per cell (sites per cell)", "setting": "[13]", "value": 56}, {"measurement": "specific cpm", "setting": "[13]", "value": 37, "unit": "cpm"}, {"measurement": "bound *SLPI (pM)", "setting": "[14]", "value": 396, "unit": "pM"}, {"measurement": "bound per free", "setting": "[14]", "value": 0.448}, {"measurement": "sites bound per cell (sites per cell)", "setting": "[14]", "value": 23900}, {"measurement": "specific cpm", "setting": "[14]", "value": 4230, "unit": "cpm"}, {"measurement": "bound *SLPI (pM)", "setting": "[15]", "value": 32.9, "unit": "pM"}, {"measurement": "bound per free", "setting": "[15]", "value": 0.259}, {"measurement": "sites bound per cell (sites per cell)", "setting": "[15]", "value": 1980}, {"measurement": "specific cpm", "setting": "[15]", "value": 1320, "unit": "cpm"}, {"measurement": "bound pM", "setting": "[16]", "value": 32.7, "unit": "pM"}, {"measurement": "bound per free", "setting": "[16]", "value": 0.0032}, {"measurement": "sites bound per cell (sites per cell)", "setting": "[16]", "value": 1970}, {"measurement": "specific cpm", "setting": "[16]", "value": 1300, "unit": "cpm"}, {"measurement": "% *SLPI BOUND", "setting": "[17]", "value": 8.7, "unit": "%"}, {"measurement": "Kd", "setting": "[18]", "value": 2, "unit": "nM"}, {"measurement": "CPM *SLPI BOUND", "setting": "[19]", "value": 14800, "unit": "cpm"}, {"measurement": "bound *SLPI (pM)", "setting": "[20]", "value": 339, "unit": "pM"}, {"measurement": "bound per free", "setting": "[20]", "value": 0.153}, {"measurement": "sites bound per cell (sites per cell)", "setting": "[20]", "value": 20400}, {"measurement": "specific cpm", "setting": "[20]", "value": 13500, "unit": "cpm"}, {"measurement": "% *SLPI BOUND", "setting": "[21]", "value": 12, "unit": "%"}, {"measurement": "% *SLPI BOUND", "setting": "[22]", "value": 101, "unit": "%"}, {"measurement": "% *SLPI BOUND", "setting": "[23]", "value": 77, "unit": "%"}, {"measurement": "bound *SLPI (pM)", "setting": "[24]", "value": 65.7, "unit": "pM"}, {"measurement": "bound per free", "setting": "[24]", "value": 0.258}, {"measurement": "sites bound per cell (sites per cell)", "setting": "[24]", "value": 3960}, {"measurement": "specific cpm", "setting": "[24]", "value": 2620, "unit": "cpm"}]}]}
